Several values for one entry are separate records, joined by “and”; a condition that tells them apart may be missing. Identical values can stand only once.
Experiments:
[1] = target: UNC-45 Q452pBpa (wild-type Q452B) (C. elegans); assay: cross-linking
[2] = target: UNC-45 (C. elegans), full-length recombinant protein (C. elegans); assay: ITC

| stoichiometry N [1] | Substance | Kd [2] [µM] |
| --- | --- | --- |
| 2 and > 5 | UNC-45 Q452pBpa (wild-type Q452B) (natural protein) |  |
|  | Hsp90 (DAF-21 in C. elegans), full-length recombinant protein (from UniProt Q18688 1-702) (natural protein) | 31 |
